# In EP0504914A2 (E.R. SQUIBB & SONS, INC., dated 1992):
# B1: human neurotrophin-3 (NT-3) (ligand, UniProt P20783 139-257, looked up)
# chain: YAEHKSHRGEYSVCDSESLWVTDKSSAIDIRGHQVTVLGEIKTGNSPVKQYFYETRCKEARPVKNGCRGIDDKHWNSQCKTSQTYVRALTSENNKLVGWRWIRIDTSCVCALSRKIGRT
# modifications: 125I (Bolton-Hunter) where used as tracer
# notes: mature; also called [125I]-labeled NT-3
# B2: human brain-derived neurotrophic factor (BDNF) (ligand, UniProt P23560 129-247, looked up)
# chain: HSDPARRGELSVCDSISEWVTAADKKTAVDMSGGTVTVLEKVPVSKGQLKQYFYETKCNPMGYTKEGCRGIDKRHWNSQCRTTQSYVRALTMDSKKRIGWRFIRIDTSCVCTLTIKRGR
# modifications: 125I (Bolton-Hunter) where used as tracer in Example 5
# notes: mature; also called [125I]-BDNF
# B3: murine 2.5S NGF (βNGF) (ligand, UniProt P01139 122-241, looked up)
# chain: SSTHPVFHMGEFSVCDSVSVWVGDKTTATDIKGKEVTVLAEVNINNSVFRQYFFETKCRASNPVESGCRGIDSKHWNSYCTTTHTFVKALTTDEKQAAWRFIRIDTACVCVLSRKATRRG
# modifications: 125I label where used as tracer
# notes: mature; The background says that βNGF exists as a 26,000 d homodimer; also called [125I]-labeled βNGF; [125I]-NGF
# B4: Xenopus laevis neurotrophin-4 (XNT-4) (ligand, UniProt P24727 114-236, looked up)
# chain: ASGSDSVSLSRRGELSVCDSVNVWVTDKRTAVDDRGKIVTVMSEIQTLTGPLKQYFFETKCNPSGSTTRGCRGVDKKQWISECKAKQSYVRALTIDANKLVGWRWIRIDTACVCTLLSRTGRT
# Columns and labels:
# [1] = target: T1, human trk proto-oncogene product gp140^trk (human, UniProt P04629 33-796); assay: cell-based or functional assay
# T1 sequence (P04629 33-796): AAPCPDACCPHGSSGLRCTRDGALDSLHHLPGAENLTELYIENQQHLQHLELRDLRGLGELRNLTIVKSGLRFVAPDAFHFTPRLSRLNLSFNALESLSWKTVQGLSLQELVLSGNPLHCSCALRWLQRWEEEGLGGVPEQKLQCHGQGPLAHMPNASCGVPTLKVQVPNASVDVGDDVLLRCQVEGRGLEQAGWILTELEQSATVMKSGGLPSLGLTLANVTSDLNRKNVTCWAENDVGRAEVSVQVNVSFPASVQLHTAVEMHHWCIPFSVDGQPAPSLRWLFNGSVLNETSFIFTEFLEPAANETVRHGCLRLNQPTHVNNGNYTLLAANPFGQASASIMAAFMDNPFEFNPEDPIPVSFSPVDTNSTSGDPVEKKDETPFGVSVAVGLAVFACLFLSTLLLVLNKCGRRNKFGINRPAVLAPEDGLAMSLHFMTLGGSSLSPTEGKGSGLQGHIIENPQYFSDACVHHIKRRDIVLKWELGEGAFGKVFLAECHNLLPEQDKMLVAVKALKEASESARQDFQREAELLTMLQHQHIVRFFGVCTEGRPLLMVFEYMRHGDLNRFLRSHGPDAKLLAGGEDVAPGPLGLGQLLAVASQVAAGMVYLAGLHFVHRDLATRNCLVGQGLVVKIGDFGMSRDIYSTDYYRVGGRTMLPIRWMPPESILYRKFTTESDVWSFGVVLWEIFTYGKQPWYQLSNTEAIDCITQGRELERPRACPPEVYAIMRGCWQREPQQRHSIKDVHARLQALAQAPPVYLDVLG
# [2] = target: T2, mouse trkB tyrosine protein kinase gp145^trkB (mouse, UniProt P15209 32-821); assay: cell-based or functional assay
# T2 sequence (P15209 32-821): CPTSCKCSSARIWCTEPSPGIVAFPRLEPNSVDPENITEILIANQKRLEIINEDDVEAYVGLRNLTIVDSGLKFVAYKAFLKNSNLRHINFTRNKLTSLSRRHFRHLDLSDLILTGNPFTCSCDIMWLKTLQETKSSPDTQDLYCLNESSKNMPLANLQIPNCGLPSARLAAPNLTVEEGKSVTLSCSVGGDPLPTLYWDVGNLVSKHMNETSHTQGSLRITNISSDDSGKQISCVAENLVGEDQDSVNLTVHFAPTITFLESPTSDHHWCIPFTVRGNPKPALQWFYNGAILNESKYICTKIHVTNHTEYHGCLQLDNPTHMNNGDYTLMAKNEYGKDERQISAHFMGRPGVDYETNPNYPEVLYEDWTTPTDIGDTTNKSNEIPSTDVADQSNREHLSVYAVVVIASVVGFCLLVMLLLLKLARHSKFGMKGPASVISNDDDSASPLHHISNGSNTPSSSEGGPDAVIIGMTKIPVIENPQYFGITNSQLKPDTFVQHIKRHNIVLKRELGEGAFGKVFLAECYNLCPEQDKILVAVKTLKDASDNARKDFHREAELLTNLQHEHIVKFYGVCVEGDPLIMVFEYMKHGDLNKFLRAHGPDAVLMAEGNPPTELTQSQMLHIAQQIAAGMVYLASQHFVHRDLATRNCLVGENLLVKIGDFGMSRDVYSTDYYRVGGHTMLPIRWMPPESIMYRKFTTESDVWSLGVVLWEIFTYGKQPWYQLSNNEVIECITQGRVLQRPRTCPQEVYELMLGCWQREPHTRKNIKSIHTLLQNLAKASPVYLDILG
# [3] = target: T3, porcine trkC product gp145^trkC (porcine); assay: Scatchard analysis, [125I]-NT-3 on R4-31 cells at 4°C, low affinity sites
# T3 construct: Expressed from pFL20 in NIH3T3 cells (R4-31); also called trkC receptor
# [4] = target: T1, human trk proto-oncogene product …; assay: cell-based or functional assay; remark: listed apart in the source
# [5] = target: T2, mouse trkB tyrosine protein kinase …; assay: cell-based or functional assay; remark: listed apart in the source
# [6] = target: T3, porcine trkC product gp145^trkC; assay: Scatchard analysis, [125I]-NT-3 on R4-31 cells at 4°C, high affinity sites
# [7] = target: T1, human trk proto-oncogene product …; assay: competition with [125I]-NGF on E25-48 cells
# [8] = target: mutant mouse trkB receptor gp145^trkB/S345 (mouse, UniProt P15209 32-821); assay: cell-based or functional assay
# Chain of mutant mouse trkB receptor gp145^trkB/S345 (P15209 other isoform, or with tags, fused parts or gaps mutant): as the sequence (P15209 32-821) above, with C314S counted along it
# [9] = target: T2, mouse trkB tyrosine protein kinase …; assay: [125I]-βNGF binding to cells at 4°C
# [10] = target: T1, human trk proto-oncogene product …; assay: Scatchard analysis, [125I]-βNGF on E25-427 cells at 4°C, low affinity receptors
# [11] = target: T1, human trk proto-oncogene product …; assay: Scatchard analysis, [125I]-βNGF on E25-427 cells at 4°C, high affinity receptors
# [12] = target: T4, endogenous trk proto-oncogene product of rat PC12 cells (rat, UniProt P35739 33-799); assay: Scatchard analysis, [125I]-βNGF on PC12 cells at 4°C, high affinity receptors
# T4 construct: whole, on cells; also called PC12 endogenous trk proto-oncogene product; gp140^trk of PC12 cells
# T4 sequence (P35739 33-799): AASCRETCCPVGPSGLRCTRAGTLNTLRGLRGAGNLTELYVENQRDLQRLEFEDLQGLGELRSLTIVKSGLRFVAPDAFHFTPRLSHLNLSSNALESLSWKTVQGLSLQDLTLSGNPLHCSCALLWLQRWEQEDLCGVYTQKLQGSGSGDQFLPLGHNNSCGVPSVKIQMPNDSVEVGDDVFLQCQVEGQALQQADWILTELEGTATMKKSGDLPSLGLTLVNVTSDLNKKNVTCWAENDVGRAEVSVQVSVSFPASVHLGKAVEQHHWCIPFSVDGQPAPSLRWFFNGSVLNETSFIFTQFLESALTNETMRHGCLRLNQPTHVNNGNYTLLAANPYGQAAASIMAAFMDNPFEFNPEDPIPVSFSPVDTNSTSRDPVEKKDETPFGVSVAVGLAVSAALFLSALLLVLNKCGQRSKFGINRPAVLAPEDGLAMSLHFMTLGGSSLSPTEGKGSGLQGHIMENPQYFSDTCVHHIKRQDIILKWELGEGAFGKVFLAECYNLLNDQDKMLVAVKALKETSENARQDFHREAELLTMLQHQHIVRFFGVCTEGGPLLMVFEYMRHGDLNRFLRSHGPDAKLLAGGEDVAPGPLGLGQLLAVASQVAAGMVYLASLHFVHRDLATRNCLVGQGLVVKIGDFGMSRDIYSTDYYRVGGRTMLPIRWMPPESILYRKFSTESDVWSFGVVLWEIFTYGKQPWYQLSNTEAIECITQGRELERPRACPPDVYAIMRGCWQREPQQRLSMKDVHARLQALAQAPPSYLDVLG
# [13] = target: T1, human trk proto-oncogene product …; assay: Scatchard analysis, [125I]-βNGF on E25-48 cells at 4°C, low affinity receptors
# [14] = target: T5, rat low affinity NGF receptor gp80^LNGFR (rat, UniProt P07174 30-425); assay: Scatchard analysis, [125I]-βNGF on PC12 cells at 4°C, low affinity receptors
# T5 construct: whole, on cells
# T5 sequence (looked up): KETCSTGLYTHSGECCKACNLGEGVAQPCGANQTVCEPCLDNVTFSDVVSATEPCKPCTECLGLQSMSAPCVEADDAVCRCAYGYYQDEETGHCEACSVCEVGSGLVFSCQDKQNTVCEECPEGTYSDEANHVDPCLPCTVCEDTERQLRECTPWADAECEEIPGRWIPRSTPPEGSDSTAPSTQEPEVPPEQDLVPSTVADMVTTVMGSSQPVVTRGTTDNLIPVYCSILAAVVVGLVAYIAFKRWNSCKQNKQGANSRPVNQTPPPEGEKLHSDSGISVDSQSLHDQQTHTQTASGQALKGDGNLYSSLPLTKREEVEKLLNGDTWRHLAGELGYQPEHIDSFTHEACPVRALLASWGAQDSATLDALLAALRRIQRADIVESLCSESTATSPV
# [15] = target: T1, human trk proto-oncogene product …; assay: Scatchard analysis, [125I]-βNGF on E25-48 cells at 4°C, high affinity receptors
# [16] = target: T1, human trk proto-oncogene product …; assay: Scatchard analysis, [125I]-βNGF on Sf9 cells infected with pAcS2, low affinity receptors
# [17] = target: T1, human trk proto-oncogene product …; assay: cell-based or functional assay; remark: listed apart in the source
# [18] = target: T1, human trk proto-oncogene product …; assay: Scatchard analysis, [125I]-βNGF on Sf9 cells infected with pAcS2, high affinity receptors
binder,measurement,setting,value
B1,"efficiency in transformation assays with pDM69, against NGF",[1],200 fold less efficient than NGF
same,"transformation efficiency with pFRK44, against BDNF",[2],500 fold lower
same,Kd,[3],4 nM
same,transforming activity of neurotrophic factor DNA in the presence of trk DNA,[4],300 ffu per µg of DNA
same,transforming activity of neurotrophic factor DNA in the presence of trkB DNA,[5],100 ffu per µg of DNA
same,Kd,[6],0.026 nM
B2,binding result,[7],no binding (tested: 500 ng/ml)
same,"efficiency in mediating the response to BDNF, against wild type gp145^trkB",[8],~10 fold less efficient than wild type
same,transforming activity of neurotrophic factor DNA in the presence of trk DNA,[4],< 1 ffu per µg of DNA
same,transforming activity of neurotrophic factor DNA in the presence of trkB DNA,[5],40000 ffu per µg of DNA
B3,binding result,[9],no binding (tested: 1 nM)
same,Kd,[10],7 nM
same,Kd,[11],0.12 nM
same,Kd,[12],0.3 nM
same,Kd,[13],2.4 nM
same,Kd,[14],33.2 nM
same,Kd,[15],0.09 nM
same,Kd,[16],13.7 nM
same,transforming activity of neurotrophic factor DNA in the presence of trk DNA,[4],20000 ffu per µg of DNA
same,transforming activity of neurotrophic factor DNA in the presence of trkB DNA,[5],< 1 ffu per µg of DNA
same,"NGF stimulation of agar colonies, 10^3 E25-48 cells",[17],9 fold
same,"NGF stimulation of agar colonies, 10^4 E25-48 cells",[17],7 fold
same,Kd,[18],0.42 nM
B4,"transforming activity with gp145^trkB, against BDNF",[2],5 fold lower than BDNF
